# Test results from US20090035321A1, “Intercellular adhesion molecules and their binding ligands” (Boehringer Ingelheim Pharmaceuticals, Inc., published 2009).
# B1: human rhinovirus 14 (HRV14) (other)
# chain: GAQVSTQKSGSHENQNILTNGSNQTFTVINYYKDAASTSSAGQSLSMDPSKFTEPVKDLMLKGAPALNSPNVEACGYSDRVQQITLGNSTITTQEAANAVVCYAEWPEYLPDVDASDVNKTSKPDTSVCRFYTLDSKTWTTGSKGWCWKLPDALKDMGVFGQNMFFHSLGRSGYTVHVQCNATKFHSGCLLVVVIPEHQLASHEGGNVSVKYTFTHPGERGIDLSSANEVGGPVKDVIYNMNGTLLGNLLIFPHQFINLRTNNTATIVIPYINSVPIDSMTRHNNVSLMVIPIAPLTVPTGATPSLPITVTIAPMCTEFSGIRSKSIVPQGLPTTTLPGSGQFLTTDDRQSPSALPNYEPTPRIHIPGKVHNLLEIIQVDTLIPMNNTHTKDEVNSYLIPLNANRQNEQVFGTNLFIGDGVFKTTLLGEIVQYYTHWSGSLRFSLMYTGPALSSAKLILAYTPPGARGPQDRREAMLGTHVVWDIGLQSTIVMTIPWTSGVQFRYTDPDTYTSAGFLSCWYQTSLILPPETTGQVYLLSFISACPDFKLRLMKDTQTISQTVALTEGLGDELEEVIVEKTKQTVASISSGPKHTQKVPILTANETGATMPVLPSDSIETRTTYMHFNGSETDVECFLGRAACVHVTEIQNKDATGIDNHREAKLFNDWKINLSSLVQLRKKLELFTYVRFDSEYTILATASQPDSANYSSNLVVQAMYVPPGAPNPKEWDDYTWQSASNPSVFFKVGDTSRFSVPYVGLASAYNCFYDGYSHDDAETQYGITVLNHMGSMAFRIVNEHDEHKTLVKIRVYHRAKHVEAWIPRAPRALPYTSIGRTNYPKNTEPVIKKRKGDIKSY
# modifications: [35S]-Met labeled
# Experiments:
# ICAM-1 Y476/TAG (human) = ICAM-1 Y476/TAG (human) (UniProt P05362); experiment: COS cell adhesion to purified LFA-1, no antibody
# [1] = molecular target: Intercellular Adhesion Molecule-1 (ICAM-1), wild type, on the cell surface (human) (UniProt P05362); experiment: COS cell adhesion to purified LFA-1, no antibody
# ICAM-1 Y52/F = ICAM-1 Y52/F (human, UniProt P05362); experiment: COS cells on LFA-1 coated plastic
# ICAM-1 N240DS/KNA = ICAM-1 N240DS/KNA (human, UniProt P05362); experiment: COS cells on LFA-1 coated plastic
# ICAM-1 Q27/L [2] = molecular target: T1, ICAM-1 Q27/L (human, UniProt P05362); experiment: COS cells on LFA-1 coated plastic
# ICAM-1 K40/A = ICAM-1 K40/A (human, UniProt P05362); experiment: COS cells on LFA-1 coated plastic
# ICAM-1 D71/N = ICAM-1 D71/N (human, UniProt P05362); experiment: COS cells on LFA-1 coated plastic
# ICAM-1 N156/E = ICAM-1 N156/E (human, UniProt P05362); experiment: COS cells on LFA-1 coated plastic
# ICAM-1 E254DE/KEK = ICAM-1 E254DE/KEK (human, UniProt P05362); experiment: COS cells on LFA-1 coated plastic
# ICAM-1 Q58/H = ICAM-1 Q58/H (human, UniProt P05362); experiment: COS cells on LFA-1 coated plastic
# ICAM-1 E127/R = ICAM-1 E127/R (human, UniProt P05362); experiment: COS cells on LFA-1 coated plastic
# ICAM-1 N175/A = ICAM-1 N175/A (human, UniProt P05362); experiment: COS cells on LFA-1 coated plastic
# ICAM-1 Y52/FA = ICAM-1 Y52/FA (human, UniProt P05362); experiment: COS cells on LFA-1 coated plastic
# [3] = molecular target: ICAM-1 N269QSQI/IQAEQ (human) (UniProt P05362); experiment: COS cells on LFA-1 coated plastic
# ICAM-1 K77T/ES = ICAM-1 K77T/ES (human, UniProt P05362); experiment: COS cells on LFA-1 coated plastic
# ICAM-1 T20CS/ACT = ICAM-1 T20CS/ACT (human, UniProt P05362); experiment: COS cells on LFA-1 coated plastic
# ICAM-1 S5/T (human) = ICAM-1 S5/T (human) (UniProt P05362); experiment: COS cells on LFA-1 coated plastic
# ICAM-1 D203TQ/TAD = ICAM-1 D203TQ/TAD (human, UniProt P05362); experiment: COS cells on LFA-1 coated plastic
# ICAM-1 K39KE/ERQ = ICAM-1 K39KE/ERQ (human, UniProt P05362); experiment: COS cells on LFA-1 coated plastic
# ICAM-1 V4/G = ICAM-1 V4/G (human, UniProt P05362); experiment: COS cells on LFA-1 coated plastic
# ICAM-1 D229QR/HLE = ICAM-1 D229QR/HLE (human, UniProt P05362); experiment: COS cells on LFA-1 coated plastic
# ICAM-1 G46NN/ASI = ICAM-1 G46NN/ASI (human, UniProt P05362); experiment: COS cells on LFA-1 coated plastic
# ICAM-1 G101K/AN = ICAM-1 G101K/AN (human, UniProt P05362); experiment: COS cells on LFA-1 coated plastic
# ICAM-1 R88V/EA = ICAM-1 R88V/EA (human, UniProt P05362); experiment: COS cells on LFA-1 coated plastic
# ICAM-1 Q27/L [4] = molecular target: T1, ICAM-1 Q27/L; experiment: 35S-HRV14 on COS cells
# ICAM-1 L91/A = ICAM-1 L91/A (human, UniProt P05362); experiment: 35S-HRV14 on COS cells
# ICAM-1 S3VS/AGL = ICAM-1 S3VS/AGL (human, UniProt P05362); experiment: 35S-HRV14 on COS cells
# ICAM-1 G15/SA = ICAM-1 G15/SA (human, UniProt P05362); experiment: 35S-HRV14 on COS cells
# ICAM-1 R13G/EA = ICAM-1 R13G/EA (human, UniProt P05362); experiment: 35S-HRV14 on COS cells
# ICAM-1 D60/Q = ICAM-1 D60/Q (human, UniProt P05362); experiment: 35S-HRV14 on COS cells
# ICAM-1 E34/A = ICAM-1 E34/A (human, UniProt P05362); experiment: 35S-HRV14 on COS cells
# ICAM-1 R13/E = ICAM-1 R13/E (human, UniProt P05362); experiment: 35S-HRV14 on COS cells
molecule,measurement,setting,value
"purified LFA-1, bound to plastic (from UniProt P20701) (receptor)",% of Cells Expressing ICAM-1 that Bind LFA-1,ICAM-1 Y476/TAG (human),20%
same,% of Cells Expressing ICAM-1 that Bind LFA-1,[1],20%
same,LFA-1 Binding % (% of wild type),ICAM-1 Y52/F,72
same,LFA-1 Binding % (% of wild type),ICAM-1 N240DS/KNA,147
same,LFA-1 Binding % (% of wild type),ICAM-1 Q27/L [2],37
same,LFA-1 Binding % (% of wild type),ICAM-1 K40/A,124
same,LFA-1 Binding % (% of wild type),ICAM-1 D71/N,79
same,LFA-1 Binding % (% of wild type),ICAM-1 N156/E,60
same,LFA-1 Binding % (% of wild type),ICAM-1 E254DE/KEK,122
same,LFA-1 Binding % (% of wild type),ICAM-1 Q58/H,109
same,LFA-1 Binding % (% of wild type),ICAM-1 E127/R,82
same,LFA-1 Binding % (% of wild type),ICAM-1 N175/A,67
same,LFA-1 Binding % (% of wild type),ICAM-1 Y52/FA,138
same,LFA-1 Binding % (% of wild type),[3],101
same,LFA-1 Binding % (% of wild type),ICAM-1 K77T/ES,87
same,LFA-1 Binding % (% of wild type),ICAM-1 T20CS/ACT,91
same,LFA-1 Binding % (% of wild type),ICAM-1 S5/T (human),104
same,LFA-1 Binding % (% of wild type),ICAM-1 D203TQ/TAD,91
same,LFA-1 Binding % (% of wild type),ICAM-1 K39KE/ERQ,99
same,LFA-1 Binding % (% of wild type),ICAM-1 V4/G,64
same,LFA-1 Binding % (% of wild type),ICAM-1 D229QR/HLE,90
same,LFA-1 Binding % (% of wild type),ICAM-1 G46NN/ASI,49
same,LFA-1 Binding % (% of wild type),ICAM-1 G101K/AN,97
same,LFA-1 Binding % (% of wild type),ICAM-1 R88V/EA,95
B1,HRV Binding %,ICAM-1 Q27/L [4],57 % of wild type
same,HRV Binding %,ICAM-1 L91/A,105 % of wild type
same,HRV Binding %,ICAM-1 S3VS/AGL,61 % of wild type
same,HRV Binding %,ICAM-1 G15/SA,164 % of wild type
same,HRV Binding %,ICAM-1 R13G/EA,3 % of wild type
same,HRV Binding %,ICAM-1 D60/Q,20 % of wild type
same,HRV Binding %,ICAM-1 E34/A,66 % of wild type
same,HRV Binding %,ICAM-1 R13/E,10 % of wild type
